Measured values as given in US20240301061A1 (BEIGENE SWITZERLAND, published 2024).

T1: human claudin 6 (CLDN6) (human, UniProt P56747 1-220)
T1 construct: also called human CLDN6; hCLDN6
T1 sequence: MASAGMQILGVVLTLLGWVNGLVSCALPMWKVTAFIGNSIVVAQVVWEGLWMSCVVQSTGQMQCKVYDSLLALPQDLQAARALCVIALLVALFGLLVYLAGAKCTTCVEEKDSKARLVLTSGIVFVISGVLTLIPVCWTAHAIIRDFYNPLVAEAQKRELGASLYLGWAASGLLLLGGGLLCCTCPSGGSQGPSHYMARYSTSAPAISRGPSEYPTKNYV


Key:
human claudin 6 (CLDN6) [1] = target: T1, human claudin 6 (CLDN6); assay: flow cytometry, HEK293T-human CLDN6 cells; ratio to chBG87P
Method: (§1) For affinity determination, CLDN6 over-expressing HEK293T cells and cancer cell line PA-1 which express high levels of human CLDN6 were used to evaluate the binding activity of BG87P related engineering variants. Live cells were seeded in 96-well plate, and were incubated with a series of dilutions of chBG87P and engineered variants thereof. Goat anti-human IgG was used as second antibody to detect antibody binding to the cell surface. EC50 values for dose-dependent binding to CLDN6 expressing cell lines were determined by fitting the dose-response data to the four-parameter logistic model with GraphPad Prism. Cell binding activity of 1st round of BG87P humanization variants against HEK293T/human CLDN6 were compared to chBG87P and shown in FIG. 1A.

human claudin 6 (CLDN6) [2] = target: T1, human claudin 6 (CLDN6); assay: flow cytometry, PA-1 cells; ratio to chBG87P
Method: as §1

human claudin 6 (CLDN6) [3] = target: T1, human claudin 6 (CLDN6); assay: flow cytometry, HEK293T-hCLDN6 cells; ratio to chBG87P
cyno CLDN6 = target: T2, cyno CLDN6 (cyno); assay: flow cytometry, HEK293T-cyno-CLDN6 cells; ratio to chBG87P
T2 construct: whole, on cells; also called cynomolgus CLDN6

human claudin 6 (CLDN6) [4] = target: T1, human claudin 6 (CLDN6); assay: flow cytometry, HEK293-hCLDN6 cells; ratio to chBG87P

Row | Binder | Emax ratio to BG87P (human claudin 6 (CLDN6) [1]) | Emax ratio to BG87P (human claudin 6 (CLDN6) [2]) | FACS Emax ratio to BG87P (human claudin 6 (CLDN6) [3]) | FACS Emax ratio to BG87P (cyno CLDN6) | FACS-Ec50 ratio to BG87P (human claudin 6 (CLDN6) [4])
1 | BG87P-25 (antibody, V domains shown) VH: QIQLVQSGAEVKKPGASVKVSCKASGYSFTDYHINWVRQAPGQRLEWMGWIYPGSGYTKYNEKFKGRVTLTRDTSASTAYMELSSLRSEDTAVYYCARSGIYHYVSSYYFDHWGKGTTVTVSS VL: DIQMTQSPSTLSASVGDRVTITCKASQDVGTAVAWYQQKPGKAPKLLIYWASTRHTGVPSRFSGSGSGTEFTLTISSLQPDDFATYYCQQYSSYTFGGGTKVEIK | 0.74 | 0.59 |  |  | 
2 | BG87P-33 (antibody, V domains shown, Framework-swapped variant; also called BG87-33) VH: EVQLQESGGGLVQPGGSLRLSCAASGYSFTDYHINWVRQAPGKGLEWVSYIYPGSGHTKYNEKFKGRFTISRDTSKNTAYLQMNSLRAEDTAVYYCARSGIYHYVSSYYFDHWGQGTLVTVSS VL: DIQMTQSPSTLSASVGDRVTITCKASQDAGSAVAWYQQKPGKAPKLLIYWASTRHTGVPSRFSGSGSGTEFTLTISSLQPDDFATYYCQQYSSYTFGGGTKVEIK |  |  | 0.91 | 0.75 | 2.45
3 | BG87P-z0 (antibody, V domains shown, Humanized, no back mutations; also called BG87P-20) VH: QVQLVQSGAEVKKPGASVKVSCKASGYTFTDYHINWVRQAPGQRLEWMGWIYPGSGYTKYNEKFKVRVTITRDTSASTAYMELSSLRSEDTAVYYCARSGIYHYVSSYYFDHWGKGTTVTVSS VL: DIQMTQSPSTLSASVGDRVTITCKASQDVGTAVAWYQQKPGKAPKLLIYWASTRHTGVPSRFSGSGSGTEFTLTISSLQPDDFATYYCQQYSSYTFGGGTKVEIK | 0.5 | 0.43 |  |  | 
4 | BG87P-27 (antibody, V domains shown) VH: QVQLVQSGAEVKKPGASVKVSCKASGYSFTDYHINWVRQAPGQRLEWMGWIYPGSGYTKYNEKFKGRVTLTRDTSASTAYMELSSLRSEDTAVYFCARSGIYHYVSSYYFDHWGKGTTVTVSS VL: DIQMTQSPSTLSASVGDRVTITCKASQDVGTAVAWYQQKPGKAPKLLIYWASTRHTGVPSRFSGSGSGTEFTLTISSLQPDDFATYYCQQYSSYTFGGGTKVEIK | 0.68 | 0.53 |  |  | 
5 | BG87P-26 (antibody, V domains shown) VH: QIQLVQSGAEVKKPGASVKVSCKASGYSFTDYHINWVRQAPGQRLEWMGWIYPGSGYTKYNEKFKGRVTITRDTSASTAYMELSSLRSEDTAVYFCARSGIYHYVSSYYFDHWGKGTTVTVSS VL: DIQMTQSPSTLSASVGDRVTITCKASQDVGTAVAWYQQKPGKAPKLLIYWASTRHTGVPSRFSGSGSGTEFTLTISSLQPDDFATYYCQQYSSYTFGGGTKVEIK | 0.77 | 0.54 |  |  | 

Second part, the binder after the results:

Row | Emax ratio to BG87P (human claudin 6 (CLDN6) [1]) | Emax ratio to BG87P (human claudin 6 (CLDN6) [2]) | FACS Emax ratio to BG87P (human claudin 6 (CLDN6) [3]) | FACS Emax ratio to BG87P (cyno CLDN6) | FACS-Ec50 ratio to BG87P (human claudin 6 (CLDN6) [4]) | Binder
6 |  |  | 0.63 |  | 1.31 | BG87P-32 (antibody, V domains shown, Solubility engineering variant of BG87P-21) VH: QVQLQQSGAETKKPGASVKVSCKASGYSFTDYHINWVRQASGQRLEWMGYIYPGSGHTKKNEKFKGRVTITRDTSASTAYMELSSLRSEDTAVYYCARSGIYHYVSSYYFDHWGKGTTVTVSS VL: DIQMTQSPSTLSASVGDRVTITCKASQDAGSAVAWYQQKPGKAPKLLIYWASTRHTGVPSRFSGSGSGTEFTLTISSLQPDDFATYYCQQYSSYTFGGGTKVEIK
7 |  |  | 0.76 |  | 1.6 | BG87P-31 (antibody, V domains shown, Solubility engineering variant of BG87P-21) VH: QVQLQQSGAETKKPGASVKVSCKASGYSFTDYHINWVRQASGQRLEWMGYIYPGSGHTKKNEKFKGRVTITRDTSASTAYMELSSLRSEDTAVYYCARSGIYHYVSSYYFDHWGKGTTVTVSS VL: DIQMTQSPSTLSASVGDRVTITCKASQDAGSAVAWYQQKPGKAPKLLIKWASTRHTGVPSRFSGSGSGTEFTLTISSLQPDDFATYYCQQYSSYTFGGGTKVEIK
8 |  |  | 1.03 | 1 | 1.17 | BG87P-34 (antibody, V domains shown, Final lead anti-CLDN6 clone (IGHV3-23 / IGKV1-39 framework); also called BG87-34) VH: EVQLQESGGGLVQPGGSLRLSCAASGYSFSDYHINWVRQAPGKGLEWVGYIYPGSGHTKYNEKFKGRFTISRDTSSNTAYLQMNSLRAEDTAVYYCARSGIYHYVSSYYFDHWGQGTLVTVSS VL: DIQMTQSPSSLSASVGDRVTITCKASQDAGSAVAWYQQKPGKAPKLLIYWASTRHTGVPSRFSGSGSGTDFTLTISSLQPEDFATYYCQQYSSYTFGGGTKLEIK
